# Biological target: T1, SARS-CoV-2 spike protein receptor binding domain (RBD) (SARS-CoV-2, wild type (Wuhan-Hu-1 …, UniProt P0DTC2))
# T1 construct: also called SARS-CoV-2 RBD
# Assay: SPR
# Details: both partners purified
Binder,Kd [nM],binding result
"romlusevimab (BRII-198) (antibody, V domains shown) VH: QVQLVQSGSELKKPGASVKVSCKASGYTFTTYVMNWVRQAPGQGLEWMGWINTNTGNPTYAQGFTGRFVFSLDTSVSTASLQISSLKAEDTAVYYCSSEITTLGGMDVWGQGTTVTVSS VL: SYVLTQPPSVSVAPGKTARITCGGNNIGSKSVHWYQQKPGQAPVLVIYYDSDRPSGIPERFSGSNSGNTATLTISGVEAGDEADYYCQVWDSISDHRVFGGGTKLTVL",0.56,
"P2B-1G5 (precursor of romlusevimab) (antibody, V domains shown) VH: QVQLVQSGSELKKPGASVKVSCKASGYTFTTYVMNWVRQAPGQGLEWMGWINTNTGNPTYAQGFTGRFVFSLDTSVSTASLQISSLKAEDTAVYYCSCEITTLGGMDVWGQGTTVTVSS VL: SYVLTQPPSVSVAPGKTARITCGGNNIGSKSVHWYQQKPGQAPVLVIYYDSDRPSGIPERFSGSNSGNTATLTISGVEAGDEADYYCQVWDSISDHRVFGGGTKLTVL",,binds

# — PMC9518701, “Preclinical characterization of amubarvimab and romlusevimab, a pair of non-competing neutralizing monoclonal antibody cocktail, against SARS-CoV-2” (Frontiers in Immunology, 2022)
